Laboratory results reported in IntAct's records for PubMed 30559189.

B1: Glycosylphosphatidylinositol-anchored high density lipoprotein-binding protein 1 (Homo sapiens), Q8IV16 (parent)
chain: MKALGAVLLALLLFGRPGRGQTQQEEEEEDEDHGPDDYDEEDEDEVEEEETNRLPGGRSRVLLRCYTCKSLPRDERCNLTQNCSHGQTCTTLIAHGNTESGLLTTHSTWCTDSCQPITKTVEGTQVTMTCCQSSLCNVPPWQSSRVQDPTGKGAGGPRGSSETVGAALLLNLLAGLGAMGARRP
partner: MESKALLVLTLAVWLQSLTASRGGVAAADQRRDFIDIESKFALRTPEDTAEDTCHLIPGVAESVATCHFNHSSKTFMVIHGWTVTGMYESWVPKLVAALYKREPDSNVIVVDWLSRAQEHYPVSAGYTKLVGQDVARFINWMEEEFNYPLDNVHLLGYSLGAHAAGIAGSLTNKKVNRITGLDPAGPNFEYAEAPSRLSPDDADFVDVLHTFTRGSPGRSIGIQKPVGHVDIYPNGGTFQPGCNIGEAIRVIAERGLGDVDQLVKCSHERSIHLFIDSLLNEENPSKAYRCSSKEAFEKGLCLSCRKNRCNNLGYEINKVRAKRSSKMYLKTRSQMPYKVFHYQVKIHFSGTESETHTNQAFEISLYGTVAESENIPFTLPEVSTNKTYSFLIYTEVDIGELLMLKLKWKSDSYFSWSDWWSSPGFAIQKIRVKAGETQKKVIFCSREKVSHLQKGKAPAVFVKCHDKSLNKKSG
B2: Lipoprotein lipase (Homo sapiens), P06858 (parent)
chain: B1 partner
partner: B1 chain

Variants of: B1
Settings: with lipl_human LPL, P06858

effect of a mutation on the interaction | Variant
disrupting interaction strength | MKALGAVLLALLLFGRPGRGQTQQEEEEEDEDHGPDDYDEEDEDEVEEEETNRLPGGRSRVLLRCYTCKSLPRDERCNLTQNCSHGQTCTTLIAHGNTESGLLTTHSTSCTDSCQPITKTVEGTQVTMTCCQSSLCNVPPWQSSRVQDPTGKGAGGPRGSSETVGAALLLNLLAGLGAMGARRP [W109S]

Variants of: B2
Settings: with hdbp1_human GPIHBP1, Q8IV16

effect of a mutation on the interaction | Variant
disrupting interaction strength | MESKALLVLTLAVWLQSLTASRGGVAAADQRRDFIDIESKFALRTPEDTAEDTCHLIPGVAESVATCHFNHSSKTFMVIHGWTVTGMYESWVPKLVAALYKREPDSNVIVVDWLSRAQEHYPVSAGYTKLVGQDVARFINWMEEEFNYPLDNVHLLGYSLGAHAAGIAGSLTNKKVNRITGLDPAGPNFEYAEAPSRLSPDDADFVDVLHTFTRGSPGRSIGIQKPVGHVDIYPNGGTFQPGCNIGEAIRVIAERGLGDVDQLVKCSHERSIHLFIDSLLNEENPSKAYRCSSKEAFEKGLCLSCRKNRCNNLGYEINKVRAKRSSKMYLKTRSQMPYKVFHYQVKIHFSGTESETHTNQAFEISLYGTVAESENIPFTLPEVSTNKTYSFLIYTEVDIGELLMLKLKWKSDSYFSWSDWWSSPGFAIQKIRVKAGETQKKVIFYSREKVSHLQKGKAPAVFVKCHDKSLNKKSG [C445Y]

Variants of: B2
Settings: with hdbp1_human GPIHBP1, Q8IV16
Remark: another data set of the same source

effect of a mutation on the interaction | Variant
disrupting interaction strength | MESKALLVLTLAVWLQSLTASRGGVAAADQRRDFIDIESKFALRTPEDTAEDTCHLIPGVAESVATCHFNHSSKTFMVIHGWTVTGMYESWVPKLVAALYKREPDSNVIVVDWLSRAQEHYPVSAGYTKLVGQDVARFINWMEEEFNYPLDNVHLLGYSLGAHAAGIAGSLTNKKVNRITGLDPAGPNFEYAEAPSRLSPDDADFVDVLHTFTRGSPGRSIGIQKPVGHVDIYPNGGTFQPGCNIGEAIRVIAERGLGDVDQLVKCSHERSIHLFIDSLLNEENPSKAYRCSSKEAFEKGLCLSCRKNRCNNLGYEINKVRAKRSSKMYLKTRSQMPYKVFHYQVKIHFSGTESETHTNQAFEISLYGTVAESENIPFTLPEVSTNKTYSFLIYTEVDIGELLMLKLKWKSDSYFSWSDWWSSPGFAIQKIRVKAGETQKKVIFSSREKVSHLQKGKAPAVFVKCHDKSLNKKSG [C445S]
disrupting interaction strength | MESKALLVLTLAVWLQSLTASRGGVAAADQRRDFIDIESKFALRTPEDTAEDTCHLIPGVAESVATCHFNHSSKTFMVIHGWTVTGMYESWVPKLVAALYKREPDSNVIVVDWLSRAQEHYPVSAGYTKLVGQDVARFINWMEEEFNYPLDNVHLLGYSLGAHAAGIAGSLTNKKVNRITGLDPAGPNFEYAEAPSRLSPDDADFVDVLHTFTRGSPGRSIGIQKPVGHVDIYPNGGTFQPGCNIGEAIRVIAERGLGDVDQLVKCSHERSIHLFIDSLLNEENPSKAYRCSSKEAFEKGLCLSCRKNRCNNLGYEINKVRAKRSSKMYLKTRSQMPYKVFHYQVKIHFSGTESETHTNQAFEISLYGTVAESENIPFTLPEVSTNKTYSFLIYTEVDIGELLRLKLKWKSDSYFSWSDWWSSPGFAIQKIRVKAGETQKKVIFCSREKVSHLQKGKAPAVFVKCHDKSLNKKSG [M404R]
